T1: rat NTNRα, endogenous, on embryonic rat spinal motoneurons (rat)
T1 sequence (chain, GPI-linked): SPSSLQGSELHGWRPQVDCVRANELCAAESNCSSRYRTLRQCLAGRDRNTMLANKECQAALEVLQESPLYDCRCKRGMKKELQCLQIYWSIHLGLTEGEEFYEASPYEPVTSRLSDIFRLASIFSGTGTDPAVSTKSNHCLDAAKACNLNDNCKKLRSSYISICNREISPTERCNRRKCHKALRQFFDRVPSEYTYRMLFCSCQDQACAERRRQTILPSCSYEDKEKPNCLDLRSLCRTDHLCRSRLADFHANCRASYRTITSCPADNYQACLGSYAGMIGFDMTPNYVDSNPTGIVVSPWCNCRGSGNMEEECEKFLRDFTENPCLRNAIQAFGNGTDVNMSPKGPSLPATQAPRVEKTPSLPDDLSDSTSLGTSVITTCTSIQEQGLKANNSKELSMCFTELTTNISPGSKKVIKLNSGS

T2: recombinant soluble rat GDNFRα (rat) (UniProt Q62997)
T2 sequence (looked up): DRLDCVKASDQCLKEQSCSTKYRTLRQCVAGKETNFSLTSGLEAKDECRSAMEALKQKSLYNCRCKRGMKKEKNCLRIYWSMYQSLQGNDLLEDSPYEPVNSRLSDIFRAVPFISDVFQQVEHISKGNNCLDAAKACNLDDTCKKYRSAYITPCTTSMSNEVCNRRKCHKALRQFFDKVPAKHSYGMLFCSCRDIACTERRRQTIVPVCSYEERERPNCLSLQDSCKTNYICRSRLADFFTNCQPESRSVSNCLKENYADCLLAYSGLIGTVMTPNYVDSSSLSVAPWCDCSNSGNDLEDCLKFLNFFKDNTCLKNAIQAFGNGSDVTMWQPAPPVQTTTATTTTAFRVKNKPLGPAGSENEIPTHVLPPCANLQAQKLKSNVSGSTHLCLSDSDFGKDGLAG

B1: Neurturin (NTN), species not stated (ligand, UniProt Q99748 96-197, looked up, species assumed)
Neurturin: ARLGARPCGLRELEVRVSELGLGYASDETVLFRYCAGACEAAARVYDLGLRRLRQRRRLRRERVRAQPCCRPTAYEDEVSFLDAHSRYHTVHELSARECACV
B2: GDNF, species not stated (ligand, UniProt P39905 78-211, looked up, species assumed)
Glial cell line-derived neurotrophic factor: SPDKQMAVLPRRERNRQAAAANPENSRGKGRRGQRGKNRGCVLTAIHLNVTDLGLGYETKEELIFRYCSGSCDAAETTYDKILKNLSRNRRLVSDKVGQACCRPIAFDDDLSFLDDNLVYHILRKHSAKRCGCI

Legend:
[1] = target: T1, rat NTNRα, endogenous, on embryonic rat spinal motoneurons (rat); experiment: cell-based or functional assay
[2] = target: T2, recombinant soluble rat GDNFRα (rat); experiment: displacement of labelled rGDNF from soluble GDNFRα by unlabeled NTN (10 nm)
[3] = target: T2, recombinant soluble rat GDNFRα (rat); experiment: binding experiments with biotinylated ligand (format not described)
[4] = target: rat NTNRα-IgG fusion protein (soluble rNTNRα) (rat); experiment: binding experiments with biotinylated ligand (format not described); 'and vice versa'

Binder	decrease in survival response of embryonic rat spinal motoneurons to NTN after PIPLC treatment [1]	Kd [2]	Kd [3]	Kd [4]
B1	50 to 90%	> 1 nM	> 1 mM	–
B2	–	–	–	> 1 mM
